Experiment [1] deals with p97 (melanotransferrin), GPI-anchored, on the cell surface (human) (UniProt P08582). Briefly: FACS, p97aWTBc3 cells after PI-PLC treatment, staining against untreated stained cells.
Experiment [2] has as its target transferrin added to TRVb and TRVb-1 cells (30 µg/mL, Example 19) (UniProt P02787). Briefly: Pandex cell fluorescence, plate 919, untreated TRVb-1 cells + Tf only, stained with L235 (specificity control).
Experiment [3] has as its target p97 (melanotransferrin), GPI-anchored, on the cell surface (human) (UniProt P08582). Briefly: FACS, Sf9 cells infected with p97 B-1-1, pre-incubated with PI-PLC, L235 + GAM IgG-FITC. On the technique in general: A flow cytometer gives signals particle by particle.
Experiment [4] shares this target. In words: FACS, SK-MEL-28 cells after Pronase treatment, staining against untreated stained cells.
Experiment [5] concerns the target transferrin added to TRVb and TRVb-1 cells (30 µg/mL, Example 19) (UniProt P02787). Briefly: Pandex cell fluorescence, plate 922 (FITC Abs pre-incubated with GAM FITC), untreated TRVb-1 cells + Tf only, stained with L235 (specificity control).
Experiment [6] deals with p97 (melanotransferrin), GPI-anchored, on the cell surface (human) (UniProt P08582). Briefly: FACS, Sf9 cells infected with p97 recombinant virus p97 B-2-1, L235 + GAM IgG-FITC.
For experiment [7] the target is unchanged. In words: FACS, Sf9 cells infected with p97 recombinant virus p97 B-1-1, L235 + GAM IgG-FITC.
Experiment [8] addresses transferrin added to TRVb and TRVb-1 cells (30 µg/mL, Example 19) (UniProt P02787). Briefly: Pandex cell fluorescence, plate 919, acid washed TRVb-1 cells + Tf only, stained with L235 (specificity control).
For experiment [9], the target named is p97 (melanotransferrin), GPI-anchored, on the cell surface (human) (UniProt P08582). Briefly: FACS, Sf9 cells infected with p97 B-2-1, pre-incubated with PI-PLC, L235 + GAM IgG-FITC.
For experiment [10] the target is unchanged. In words: FACS, SK-MEL-28 cells pre-incubated with PI-PLC (removes p97), L235 + GAM IgG-FITC.
Experiment [11] shares this target. Briefly: cell-based or functional assay.
Experiment [12] shares this target. Briefly: FACS, SK-MEL-28 cells, L235 hybridoma supernatant + GAM IgG-FITC.
The target in experiment [13] is transferrin added to TRVb and TRVb-1 cells (30 µg/mL, Example 19) (UniProt P02787). Briefly: Pandex cell fluorescence, plate 925 (unlabelled Abs then GAM FITC), acid washed TRVb-1 cells + Tf only, stained with L235 (specificity control).
Experiment [14] shares this target. Briefly: Pandex cell fluorescence, plate 925 (unlabelled Abs then GAM FITC), untreated TRVb-1 cells + Tf only, stained with L235 (specificity control).
Experiment [15] addresses p97 (melanotransferrin), GPI-anchored, on the cell surface (human) (UniProt P08582). In words: FACS, p97aWTBc7 cells after PI-PLC treatment, staining against untreated stained cells.
Experiment [16] has the same target. In words: FACS, SK-MEL-28 cells after PI-PLC treatment, staining against untreated stained cells.
Experiment [17] deals with transferrin added to TRVb and TRVb-1 cells (30 µg/mL, Example 19) (UniProt P02787). In words: Pandex cell fluorescence, plate 922 (FITC Abs pre-incubated with GAM FITC), acid washed TRVb-1 cells + Tf only, stained with L235 (specificity control).
The target in experiment [18] is human transferrin receptor on cells (human) (UniProt P02786). In words: Pandex cell fluorescence, plate 911, untreated TRVb-1 cells, OKT9 then GAM FITC.
For experiment [19] the target is unchanged. Briefly: Pandex cell fluorescence, plate 919, acid washed TRVb-1 cells, OKT9 then GAM FITC.
The target is the same in experiment [20]. Briefly: Pandex cell fluorescence, plate 911, acid washed TRVb-1 cells, OKT9 then GAM FITC.
For experiment [21] the target is unchanged. Briefly: FACS, SK-MEL-28 cells after Pronase treatment, staining against untreated stained cells.
Experiment [22] shares this target. In words: Pandex cell fluorescence, plate 919, untreated TRVb-1 cells, OKT9 then GAM FITC.
The target is the same in experiment [23]. Briefly: FACS, SK-MEL-28 cells after PI-PLC treatment, staining against untreated stained cells.
The target of experiment [24] is Thy-1 on EL-4 mouse lymphoma cells (mouse) (UniProt P01831). Briefly: FACS, EL-4 cells after Pronase treatment, staining against untreated stained cells.
The target is the same in experiment [25]. In words: FACS, EL-4 cells after PI-PLC treatment, staining against untreated stained cells.

Three substances from patent US20030077693A1 can be followed below.

Sequence of UniProt P08582 (P08582 20-709): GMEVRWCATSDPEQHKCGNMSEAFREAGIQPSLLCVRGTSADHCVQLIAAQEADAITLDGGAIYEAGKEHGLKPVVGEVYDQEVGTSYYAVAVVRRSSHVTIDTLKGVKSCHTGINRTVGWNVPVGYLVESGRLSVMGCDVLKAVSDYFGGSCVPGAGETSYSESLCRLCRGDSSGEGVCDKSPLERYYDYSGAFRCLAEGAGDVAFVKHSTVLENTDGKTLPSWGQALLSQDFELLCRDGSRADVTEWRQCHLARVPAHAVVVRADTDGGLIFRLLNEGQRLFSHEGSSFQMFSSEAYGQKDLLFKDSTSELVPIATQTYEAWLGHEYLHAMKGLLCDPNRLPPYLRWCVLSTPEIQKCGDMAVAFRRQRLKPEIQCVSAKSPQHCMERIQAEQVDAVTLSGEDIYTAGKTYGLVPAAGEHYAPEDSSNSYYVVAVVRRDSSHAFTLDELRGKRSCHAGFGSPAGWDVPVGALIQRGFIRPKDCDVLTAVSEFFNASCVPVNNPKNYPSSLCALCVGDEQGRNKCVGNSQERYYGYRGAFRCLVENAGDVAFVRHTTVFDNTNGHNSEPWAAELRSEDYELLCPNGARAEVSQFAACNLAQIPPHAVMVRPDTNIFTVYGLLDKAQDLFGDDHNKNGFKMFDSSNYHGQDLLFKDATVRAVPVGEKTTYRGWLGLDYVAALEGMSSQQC
Sequence of UniProt P02786 (P02786 whole entry): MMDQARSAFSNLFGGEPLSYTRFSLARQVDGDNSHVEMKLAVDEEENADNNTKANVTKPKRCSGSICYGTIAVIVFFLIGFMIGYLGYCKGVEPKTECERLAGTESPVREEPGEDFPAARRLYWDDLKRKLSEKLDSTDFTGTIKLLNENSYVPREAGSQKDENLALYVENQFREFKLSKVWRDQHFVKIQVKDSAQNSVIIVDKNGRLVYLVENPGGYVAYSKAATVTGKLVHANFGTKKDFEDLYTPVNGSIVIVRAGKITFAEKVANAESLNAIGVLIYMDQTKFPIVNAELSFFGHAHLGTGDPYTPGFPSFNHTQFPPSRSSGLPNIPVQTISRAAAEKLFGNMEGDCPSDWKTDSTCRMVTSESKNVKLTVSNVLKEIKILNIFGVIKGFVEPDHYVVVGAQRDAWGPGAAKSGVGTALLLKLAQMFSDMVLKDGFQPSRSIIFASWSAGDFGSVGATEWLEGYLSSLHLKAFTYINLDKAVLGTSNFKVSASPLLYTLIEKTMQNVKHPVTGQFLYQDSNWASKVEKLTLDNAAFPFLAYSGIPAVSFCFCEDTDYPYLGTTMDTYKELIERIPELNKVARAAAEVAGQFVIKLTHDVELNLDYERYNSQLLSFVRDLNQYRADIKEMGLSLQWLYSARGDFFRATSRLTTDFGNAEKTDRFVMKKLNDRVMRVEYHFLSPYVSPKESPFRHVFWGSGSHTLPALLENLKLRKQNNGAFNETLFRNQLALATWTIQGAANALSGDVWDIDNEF
Sequence of UniProt P02787 (P02787 20-698 limits assumed): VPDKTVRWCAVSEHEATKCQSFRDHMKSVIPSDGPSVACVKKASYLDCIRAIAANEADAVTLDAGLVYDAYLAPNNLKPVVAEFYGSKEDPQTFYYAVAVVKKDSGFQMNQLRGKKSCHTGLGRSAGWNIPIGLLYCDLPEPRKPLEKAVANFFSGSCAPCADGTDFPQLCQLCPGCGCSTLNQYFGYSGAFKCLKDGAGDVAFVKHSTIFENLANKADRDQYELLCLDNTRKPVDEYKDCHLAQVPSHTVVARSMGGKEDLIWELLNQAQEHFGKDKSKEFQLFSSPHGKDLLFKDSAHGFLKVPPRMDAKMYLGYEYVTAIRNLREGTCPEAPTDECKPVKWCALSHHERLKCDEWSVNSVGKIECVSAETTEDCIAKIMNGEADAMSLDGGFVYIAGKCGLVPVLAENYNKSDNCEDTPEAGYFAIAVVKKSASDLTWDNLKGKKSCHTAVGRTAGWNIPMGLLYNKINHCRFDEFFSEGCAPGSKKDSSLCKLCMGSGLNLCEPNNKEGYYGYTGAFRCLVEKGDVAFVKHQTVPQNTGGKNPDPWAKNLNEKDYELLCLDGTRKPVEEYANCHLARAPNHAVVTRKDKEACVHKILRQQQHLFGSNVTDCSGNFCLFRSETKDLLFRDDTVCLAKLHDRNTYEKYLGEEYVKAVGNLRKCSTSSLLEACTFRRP
Sequence of UniProt P01831 (P01831 20-131): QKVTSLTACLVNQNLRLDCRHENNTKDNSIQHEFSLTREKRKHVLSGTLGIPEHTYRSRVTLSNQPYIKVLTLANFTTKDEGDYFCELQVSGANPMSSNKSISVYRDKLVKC

With L235 anti-p97 mouse monoclonal antibody, the Fluorescene Intensity (% of Control) in experiment [1] was 6.8 % of Control; in experiment [4], 82.6 % of Control; in [15], 7.5 % of Control; in experiment [16], 10.8 % of Control. For the same substance, the fluorescence in experiment [2] came to 5330; in experiment [5], 7440; in experiment [8] it was 5320; in experiment [13] it was 2710; in experiment [14], 2520; in [17] it was 6220. The fluorescence less control (TRVb) in experiment [2] was 0; in [5] it was 0; in [8], 1120; in experiment [13] it was 758; in [14] it was 237; in experiment [17] it was 107. In addition, the FLUORESCENCE-converted linear value in experiment [3] is 5.74; in [6], 97.4; in experiment [7], 112; in experiment [9] it was 6.85; in experiment [10], 4.52; in experiment [12], 128. In experiment [11], this substance had an internalization of Fe from 59Fe-citrate by p97TRVb cells of 31%.
As to “OKT9 anti-human transferrin receptor mouse monoclonal antibody”, the fluorescence in experiment [18] stood at 4760; in experiment [19], 12500; in experiment [20], 7140; in [22] it was 13600. Besides, the fluorescence less control in [18] was 3250; in experiment [19], 10400; in [20] it was 5060; in [22], 11500. Also, the values for the Fluorescene Intensity (% of Control) in experiment [21] and in [23] were 15.9 % of Control and 120 % of Control, respectively.
On to T24/37.1 MAb (anti-Thy-1) (antibody), for which the Fluorescene Intensity (% of Control) in experiment [24] was 136 % of Control; in [25] it was 32.5 % of Control.
